From paper doi:10.1101/2025.11.11.687766

Key:
[1] = target: Retron-Eco8 reverse transcriptase (RT) (Escherichia coli); assay: cryo-EM structure
[2] = target: Retron-Eco8 effector (OLD-family nuclease), untagged, of the Retron-Eco8^ATP construct (Escherichia coli); assay: cryo-EM structure

stoichiometry N (RT per effector (4:4)) [1]: 1 | stoichiometry N [2]: 4
Substance: Retron-Eco8 effector (OLD-family nuclease), untagged, of the Retron-Eco8^ATP construct (enzyme)
